In publication PMC3082930:
Each block holds one substance with its values, some of them ahead of it.

Legend:
CFP-Kv2.1 (rat) = CFP-Kv2.1 (rat) (UniProt P15387); assay: FRET or BRET
CFP-Kv2.1-K470Q (rat) = assay: FRET or BRET
[1] = target: Lys-Gln-Gln-Gln tetrameric Kv2.1 construct (rat); assay: TIRF single-particle photobleaching step counting
[2] = target: Gln-Lys-Lys-Gln tetrameric Kv2.1 construct (rat); assay: TIRF single-particle photobleaching step counting
[3] = target: Gln-Lys-Gln-Gln tetrameric Kv2.1 construct (rat); assay: TIRF single-particle photobleaching step counting
GFP-Kv2.1-K470Q (rat) = assay: TIRF single-particle photobleaching step counting

CFP donor photobleaching decay time constant (tau) (CFP-Kv2.1 (rat)): 23.2 s
Substance: YFP-Ubc9 (from UniProt P63279 1-158) (enzyme)

CFP donor photobleaching decay time constant (tau) (CFP-Kv2.1-K470Q (rat)): 26.2 s
Substance: YFP-Kv2.1-K470Q (natural protein)

stoichiometry N [1]: 1
stoichiometry N [2]: 1
stoichiometry N [3]: 1
Substance: GFP-SUMO1_(101) (from UniProt P63165 1-101) (natural protein)

stoichiometry N (GFP-Kv2.1-K470Q (rat)): 4
Substance: GFP-Kv2.1-K470Q (natural protein)
